T1: rKv4.3N (Rattus norvegicus, UniProt Q62897)
T1 construct: expressed in transfected cells; host or cells: yeast HF7c (bait), mated with Y187 (fish)
T1 sequence (Q62897 1-180): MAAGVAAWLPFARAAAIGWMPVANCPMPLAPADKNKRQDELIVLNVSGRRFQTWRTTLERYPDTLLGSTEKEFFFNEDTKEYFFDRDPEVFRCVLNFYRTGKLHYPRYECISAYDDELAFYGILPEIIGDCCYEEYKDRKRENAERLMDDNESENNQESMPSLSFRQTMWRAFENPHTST

T2: rKv4.2N (Rattus norvegicus, UniProt Q63881)
T2 construct: the N-terminal domains of Kv4.3, Kv4.2 were expressed as “baits” (Kv4.3N, Kv4.2N, respectively); expressed in transfected cells; host or cells: yeast HF7c (baits), mated with Y187 (fish)
T2 sequence (Q63881 1-184 limits assumed): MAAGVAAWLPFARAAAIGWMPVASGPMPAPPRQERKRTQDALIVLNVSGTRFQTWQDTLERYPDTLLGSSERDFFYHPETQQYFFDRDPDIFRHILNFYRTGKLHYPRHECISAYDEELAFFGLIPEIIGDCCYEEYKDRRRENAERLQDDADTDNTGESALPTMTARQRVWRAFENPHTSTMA

B1: Rat 19r: identical to Rat phosphatidylinositol (PTDINS) transfer protein alpha (protein)
chain: MVLLKEYRVILPVSVDEYQVGQLYSVAEASKNETGGGEGVEVLVNEPYEKDDGEKGQYTHKIYHLQSKVPTFVRMLAPEGALNIHEKAWNAYPYCRTVITNEYMKEDFLIKIETWHKPDLGTQENVHKLEPEAWKHVEAIYIDIADRSQVLSKDYKAEEDPAKFKSIKTGRGPLGPNWKQELVNQKDCPYMCAYKLVTVKFKWWGLQNKVENFIHKQEKRLFTNFHRQLFCWLDKWVDLTMDDIRRMEEETKRQLDEMRQKDPVKGMTADD
B2: Rat 29x: identical at the amino acid level to rat SOCS-1 (Suppressor Of Cytokine Signaling) (protein)
chain: ARLPAPEHARQQPLLSGPEPGSSARVPVPGVASRRQPRGGKPPSGDGLESGPSPRPLLHARGEAGLHRQSGRVPHTGTAYFADEPTEAQAPGGFCVSPSLLGVRWPACATRTPGSLPLSPPSAQPRTLWPTPPAGPSSRMVARNQVAADNAISPASEPRRRPEPSSSSSSSSPAAPARPRPCPVVPAPAPGDTHFRTFRSHSDYRRITRTSALLDACGFYWGPLSVHGAHERLRAEPVGTFLVRDSRQRNCFFALSVKMASGPTSIRVHFQAGRFHLDGSRETFDCLFELLEHYVAAPRRMLGAPLRQRRVRPLQELCRQRIVAAVGRENLARIPLNPVLRDYLSSFPFQI
B3: Rat 7q: identical to RAB2 (rat RAS-related protein) (protein)
chain: MAYAYLFKYIIIGDTGVGKSCLLLQFTDKRFQPVHDLTIGVEFGARMITIDGKQIKLQIWDTAGQESFRSITRSYYRGAAGALLVYDITRRDTFNHLTTWLEDARQHSNSNMVIMLIGNKSDLESRREVKKEEGEAFAREHGLIFMETSAKTASNVEEAFINTAKEIYEKIQEGVFDINNEANGIKIGPQHAATNASHGGNQGGQQAGGGCC
B4: Rat 5p: identical to rat Calpactin I light chain or P10 (protein)
chain: MPSQMEHAMETMMLTFHRFAGEKNYLTKEDLRVLMEREFPGFLENQKDPLAVDKIMKDLDQCRDGKVGFQSFLSLVAGLIIACNDYFVVHMKQKK

How the values were obtained:
rKv4.3N = target: T1, rKv4.3N; assay: Yeast two-hybrid binding and specificity test, Kv4.3 N-terminal bait; conditions: for preference between rKv4.3N and rKv4.2N in yeast two-hybrid assay: rKv4.3N versus rKv4.2N
Experimental: The first 180 amino acids of rKv4.3 (described in Serdio P. et al. (1996) J. Neurophys 75:2174-2179) were amplified by PCR and cloned in frame into pGBT9 resulting in plasmid pFWA2, (hereinafter “bait”). This bait was transformed into the two-hybrid screening strain HF7c and tested for expression and self-activation. The bait was validated for expression by Western blotting.
(§1) Two-hybrid screens were carried out essentially as described in Bartel, P. et al. (1993) “Using the Two-Hybrid System to Detect Polypeptide-Polypeptide Interactions” in Cellular Interactions in Development: A Practical Approach, Hartley, D. A. ed. Oxford University Press, Oxford, pp. 153-179, with a bait-library pair of rkv4.3 bait-rat mid brain library. A filter disk beta-galactosidase (beta-gal) assay was performed essentially as previously described (Brill et al. (1994) Mol. Biol. Cell. 5:297-312). Clones that were positive for both reporter gene activity (His and beta-galactosidase) were scored and fish, plasmids were isolated from yeast, transformed into E. coli strain KC8, DNA plasmids were purified and the resulting plasmids were sequenced by conventional methods (Sanger F. et al. (1977) PNAS, 74: 5463-67).
(§2) Positive interactor clones were subjected to a binding specificity test where they were exposed to a panel of related and unrelated baits by a mating scheme previously described (Finley R. L. Jr. et al. (1994) PNAS, 91(26):12980-12984). Briefly, positive fish plasmids were transformed into Y187 and the panel of baits were transformed into HF7c. Transformed fish and bait cells were streaked out as stripes on selective medium plates, mated on YPAD plates, and tested for reporter gene activity.

rKv4.2N = target: T2, rKv4.2N; assay: Yeast two-hybrid binding and specificity test, Kv4.2 N-terminal bait
Experimental: as §1, §2

rKv1.1N = target: T3, rKv1.1N (Rattus norvegicus, UniProt P10499); assay: Yeast two-hybrid binding and specificity test, Kv1.1 N-terminal bait
T3 construct: expressed in transfected cells; host or cells: yeast HF7c (baits), mated with Y187 (fish)
T3 sequence (P10499 1-164 limits assumed): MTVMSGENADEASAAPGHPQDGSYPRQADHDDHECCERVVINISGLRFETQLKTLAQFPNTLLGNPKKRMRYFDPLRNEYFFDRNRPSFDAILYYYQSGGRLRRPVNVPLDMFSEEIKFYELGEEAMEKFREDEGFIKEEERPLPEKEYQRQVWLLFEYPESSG
Experimental: as §1, §2

Molecule | binding to rKv4.3N in yeast two-hybrid assay (rKv4.3N) | preference between rKv4.3N and rKv4.2N in yeast two-hybrid assay (rKv4.3N) | binding to rKv4.2N in yeast two-hybrid assay (rKv4.2N) | binding to rKv1.1N in yeast two-hybrid assay (rKv1.1N)
B1 | binds | slight preference for rKv4.3N | binds | does not bind
B2 | binds | slight preference for rKv4.3N | binds | does not bind
B3 | binds | same strength | binds | does not bind
B4 | binds | – | binds | does not bind

Reference: US7556938B1, “Nucleic acids encoding potassium channel interactors” (Millennium Pharmaceuticals, Inc., priority 1998, dated 2009)
